Data taken from the RNAGym collection of RNA variant scans (doi:10.7554/elife.90254).

B1: OR4K15 (parent)
chain: GUUAACGGUCAUAGGCCAUGGAAACUAGGAGCACCAUUUCGCUGCCAGUGAAGAAAUGAACAAAGAAAAUCUGGGCCAGGCAGGCAUCAAAAGAAAUAGUCUUGCGCUCAACCAGAAAGUCUGUAAUCAUUUUAAGGGUA

Variants of: B1
Assay: self-cleavage, relative activity (ratio to wild type); higher = more cleavage; in vitro, sequencing; the parent is a self-cleaving ribozyme

In order of falling self-cleavage:
1. GUUAUCGGUCAUAGGCCAUGGAAACUAGGAGCACCAUUUCGCAGCCAGUGAAGAAAUGAACAAAGAAAAUCUGGGCCAGGCAGGCAUCAAAAGAAAUAGUCUUGCGCUCAACCAGAAAGUCUGUAAUCAUUUUAAGGGUA [A5U U43A]  2.16
2. GUUAAAGGUCGUAGGCCAUGGAAACUAGGAGCACCAUUUCGCUGCCAGUGAAGAAAUGAACAAAGAAAAUCUGGGCCAGGCAGGCAUCAAAAGAAAUAGUCUUGCGCUCAACCAGAAAGUCUGUAAUCAUUUUAAGGGUA [C6A A11G]  2.1
3. GUUAAGGGUCAUAGGCCAAGGAAACUAGGAGCACCAUUUCGCUGCCAGUGAAGAAAUGAACAAAGAAAAUCUGGGCCAGGCAGGCAUCAAAAGAAAUAGUCUUGCGCUCAACCAGAAAGUCUGUAAUCAUUUUAAGGGUA [C6G U19A]  1.65
4. GUUAUCGGUCAUAGGCCAUGGAAACUAGGAGCACCAUUUCGCUGCCAGUGAAGAAAUGAACAAAGAAAAUCUGGGCCAGGCAGGCAUCAAAAGAAAUAGCCUUGCGCUCAACCAGAAAGUCUGUAAUCAUUUUAAGGGUA [A5U U100C]  1.64
5. GUUAUCGGUCAUAGGCCAUGGAAACUAGGAGCACCAUUUCGCUGCCAGUGAAGAAAUGAACAAAGAAAAUCUGGGCCAGGCAGGCAUCAAAAGAAAUAGUCUUGCGCUCAACCAGAAAGUCUGUAAUCAUCUUAAGGGUA [A5U U131C]  1.52
6. GUUAAAGGCCAUAGGCCAUGGAAACUAGGAGCACCAUUUCGCUGCCAGUGAAGAAAUGAACAAAGAAAAUCUGGGCCAGGCAGGCAUCAAAAGAAAUAGUCUUGCGCUCAACCAGAAAGUCUGUAAUCAUUUUAAGGGUA [C6A U9C]  1.47
7. GUUAUCGGUCAUAGGCCACGGAAACUAGGAGCACCAUUUCGCUGCCAGUGAAGAAAUGAACAAAGAAAAUCUGGGCCAGGCAGGCAUCAAAAGAAAUAGUCUUGCGCUCAACCAGAAAGUCUGUAAUCAUUUUAAGGGUA [A5U U19C]  1.4
8. GUUAUCGGUCAUAGGCCAUGGAAACUAGUAGCACCAUUUCGCUGCCAGUGAAGAAAUGAACAAAGAAAAUCUGGGCCAGGCAGGCAUCAAAAGAAAUAGUCUUGCGCUCAACCAGAAAGUCUGUAAUCAUUUUAAGGGUA [A5U G29U]  1.39
9. GUUAAAGGUCAUAGGCCAUGGAAACUAGGAGCACCAUUUCGCUGCCAGUGAAGAAAUGAACAAAGAAAAUCUGGGCCAGGCAGGCAUCUAAAGAAAUAGUCUUGCGCUCAACCAGAAAGUCUGUAAUCAUUUUAAGGGUA [C6A A89U]  1.38
10. GUUAUCGGCCAUAGGCCAUGGAAACUAGGAGCACCAUUUCGCUGCCAGUGAAGAAAUGAACAAAGAAAAUCUGGGCCAGGCAGGCAUCAAAAGAAAUAGUCUUGCGCUCAACCAGAAAGUCUGUAAUCAUUUUAAGGGUA [A5U U9C]  1.27
11. GUUAUCGGUCAUAGGCCAUGGAAACUAGGAGCACCAUUUCGCUGCCAGUGAAGAAAUGAACAAAGAAAAUCUGGGCCAGGCAGGCAACAAAAGAAAUAGUCUUGCGCUCAACCAGAAAGUCUGUAAUCAUUUUAAGGGUA [A5U U87A]  1.2
12. GUUAUCGGUCAUAGGCCAUGGAAACUAGAAGCACCAUUUCGCUGCCAGUGAAGAAAUGAACAAAGAAAAUCUGGGCCAGGCAGGCAUCAAAAGAAAUAGUCUUGCGCUCAACCAGAAAGUCUGUAAUCAUUUUAAGGGUA [A5U G29A]  1.2
13. GUUAAGGGUCAUAGGCCAUGGAAACUAGGAGCACCAUUUCGCUGCCAGUGAAGAAAUGAACAAAGAAAAUCUGGGCCAGGCAGGCAUCAAAAGAAAUAGUCUUGCGCUCAACCAGAAAGUCUGUAGUCAUUUUAAGGGUA [C6G A126G]  1.2
14. GUUAAUGGUCAUAGGCCAUGGAGACUAGGAGCACCAUUUCGCUGCCAGUGAAGAAAUGAACAAAGAAAAUCUGGGCCAGGCAGGCAUCAAAAGAAAUAGUCUUGCGCUCAACCAGAAAGUCUGUAAUCAUUUUAAGGGUA [C6U A23G]  1.15
15. GUUAAAGGUCAUAGGCCAUGGAAACUAGGAGCACCAUUUCGCUGCCAGUGAAGAGAUGAACAAAGAAAAUCUGGGCCAGGCAGGCAUCAAAAGAAAUAGUCUUGCGCUCAACCAGAAAGUCUGUAAUCAUUUUAAGGGUA [C6A A55G]  1.13
16. GUUAUCGGUCAUAGGCCAUGGAAACUAGGAGCACCAUUUCGCUGCCAGUGAAGAAAUGAACAAAGAAAAUCUGGGCCAGGCAGGCAUCAAAAGAAAUAGUCAUGCGCUCAACCAGAAAGUCUGUAAUCAUUUUAAGGGUA [A5U U102A]  1.12
17. GUUAUCGGUCAUAGGCCAUGGAAACUAGGAGCACCAUUCCGCUGCCAGUGAAGAAAUGAACAAAGAAAAUCUGGGCCAGGCAGGCAUCAAAAGAAAUAGUCUUGCGCUCAACCAGAAAGUCUGUAAUCAUUUUAAGGGUA [A5U U39C]  1.1
18. GUUAAAGGUCAUAGGCCAUGGAAACUAGGAGCUCCAUUUCGCUGCCAGUGAAGAAAUGAACAAAGAAAAUCUGGGCCAGGCAGGCAUCAAAAGAAAUAGUCUUGCGCUCAACCAGAAAGUCUGUAAUCAUUUUAAGGGUA [C6A A33U]  1.06
19. GUUAAUGGUCAUAGGCCAUGGAAACUAGGAGCUCCAUUUCGCUGCCAGUGAAGAAAUGAACAAAGAAAAUCUGGGCCAGGCAGGCAUCAAAAGAAAUAGUCUUGCGCUCAACCAGAAAGUCUGUAAUCAUUUUAAGGGUA [C6U A33U]  1.05
20. GUUAUCGGUCAUAGGCCAUGGAAACUAGGAGCACCAUUUCGCUGCCAGUGAAGAAAUGAACAAAGAAAACCUGGGCCAGGCAGGCAUCAAAAGAAAUAGUCUUGCGCUCAACCAGAAAGUCUGUAAUCAUUUUAAGGGUA [A5U U70C]  1.03
21. GUUAUCGGUCAUAGGCCAUGGAAACUAGGAGCACCAUUUCGCUGCCAGUGAAGAAAUGAACAAAGAAAAUCUGGGCCAGGCAGGCAUCAAAAGAAAUAGUCUUGCGCUCAACCAGAAAGUCUGCAAUCAUUUUAAGGGUA [A5U U124C]  0.99
22. GUUAAAGGUCAUAGGCCAUGGAAACUAGGAGCACCAUUUCGCUGCCAGUGAAGAAAUGAACAAAGAAAAUCUGGGCCAGGCAGGCAUCAAAAGAAAUAGUCUUGCGCUCAACCAGAAAGUCUGAAAUCAUUUUAAGGGUA [C6A U124A]  0.95
23. GUUAUCGGUCAUAGGCCAUGGAAACUAGGAGCACCAUUUCGCUGCCAGUGAAGAAAUGAACAAAGAAAAUCUGGGCCAGGCAGGCAUCAAAAGAAAUAGUCUUGCGCUCAACCAGAAAGUCUGUAAUCAUUUUAAGGGCA [A5U U139C]  0.93
24. GUUAAUGGUCAUAGGCCAUGGAAACUAGGAGCACCAUUUCGCUGCCAGUGAAGGAAUGAACAAAGAAAAUCUGGGCCAGGCAGGCAUCAAAAGAAAUAGUCUUGCGCUCAACCAGAAAGUCUGUAAUCAUUUUAAGGGUA [C6U A54G]  0.92
25. GUUAAUGGUCAUAGGCCGUGGAAACUAGGAGCACCAUUUCGCUGCCAGUGAAGAAAUGAACAAAGAAAAUCUGGGCCAGGCAGGCAUCAAAAGAAAUAGUCUUGCGCUCAACCAGAAAGUCUGUAAUCAUUUUAAGGGUA [C6U A18G]  0.91
26. GUUAUCGGUCAUAGGCCAUGGAAACUAGGAGCACCAUUUCGCUUCCAGUGAAGAAAUGAACAAAGAAAAUCUGGGCCAGGCAGGCAUCAAAAGAAAUAGUCUUGCGCUCAACCAGAAAGUCUGUAAUCAUUUUAAGGGUA [A5U G44U]  0.8
27. GUUAAAGGUCAUAGGCCAUGGAAACUAGGAGCACCAUUUCGCUGCCAGUGAAGAAAUGAACAAAGAAAAUCUGGGCCAGGCAGGCAUCAAAAGAAAUAGUCUUGCGCUCAACCAGGAAGUCUGUAAUCAUUUUAAGGGUA [C6A A116G]  0.77
28. GUUAUCGGUCAUAGGCCAUGGAAACUAGGAGCACCAUUUCGCUGCCAGUGAAGAAAUGAACAAAGAAAAUCUGGGCCAGGCAGGCAUCAAAAGAAAUAGUCUUGCGCUCAACCAGAAAGCCUGUAAUCAUUUUAAGGGUA [A5U U120C]  0.76
29. GUUAAAGGUCAUAGGCCAUGGAAACUAGGAGCACCAUUUCGCUGCCAGUGAAGAAAUGAAUAAAGAAAAUCUGGGCCAGGCAGGCAUCAAAAGAAAUAGUCUUGCGCUCAACCAGAAAGUCUGUAAUCAUUUUAAGGGUA [C6A C61U]  0.76
30. GUUAAAGGUCAUAGGCCAUGGAAACUAGGAGCACCAUUUCGCUGCCAGUGAAGAAAUGAACAAAGAGAAUCUGGGCCAGGCAGGCAUCAAAAGAAAUAGUCUUGCGCUCAACCAGAAAGUCUGUAAUCAUUUUAAGGGUA [C6A A67G]  0.72
31. GUUAAGGGUCAUAGGCCAUGGAAACUAGGAGCACCAUUUCGCUGCCAGUGAAGAAAUGAACAAAGAAAAUCUGGGCCAGGCAGGCACCAAAAGAAAUAGUCUUGCGCUCAACCAGAAAGUCUGUAAUCAUUUUAAGGGUA [C6G U87C]  0.65
32. GUUAAGGGUCAUAGGCCAUGGAAACUAGGAGCACCAUUUCGCUGCCAGUGAAGAAAUGAACAAAGAAAAUCUGGGCCAGGCAGGCAUCAAAAGAAAUAGUCUUGCGCUCAACCAGAAAGUCUGUAAUCACUUUAAGGGUA [C6G U130C]  0.63
33. GUUAAAGGUCAUAGGCCAUGGAAACUAGGAGCACCAUUUCGCUGCCAGGGAAGAAAUGAACAAAGAAAAUCUGGGCCAGGCAGGCAUCAAAAGAAAUAGUCUUGCGCUCAACCAGAAAGUCUGUAAUCAUUUUAAGGGUA [C6A U49G]  0.61
34. GUUAUCGGUCAUAGGCCAUGGAAACCAGGAGCACCAUUUCGCUGCCAGUGAAGAAAUGAACAAAGAAAAUCUGGGCCAGGCAGGCAUCAAAAGAAAUAGUCUUGCGCUCAACCAGAAAGUCUGUAAUCAUUUUAAGGGUA [A5U U26C]  0.57
35. GUUAAAGGUCAUAGGCCAUGGAAACUAGGAGCACCAUUUCGCUGCCAGUGAAGAAAUGAGCAAAGAAAAUCUGGGCCAGGCAGGCAUCAAAAGAAAUAGUCUUGCGCUCAACCAGAAAGUCUGUAAUCAUUUUAAGGGUA [C6A A60G]  0.5
36. GUUAAAGGUCAUAGGCCAUGGAAACUAGGAGCACCAUUUCGCCGCCAGUGAAGAAAUGAACAAAGAAAAUCUGGGCCAGGCAGGCAUCAAAAGAAAUAGUCUUGCGCUCAACCAGAAAGUCUGUAAUCAUUUUAAGGGUA [C6A U43C]  0.5
37. GUUAAUGGUCGUAGGCCAUGGAAACUAGGAGCACCAUUUCGCUGCCAGUGAAGAAAUGAACAAAGAAAAUCUGGGCCAGGCAGGCAUCAAAAGAAAUAGUCUUGCGCUCAACCAGAAAGUCUGUAAUCAUUUUAAGGGUA [C6U A11G]  0.47
38. GUUAAAGGUCAUAGGCCAUGGAAACUAGGAGCACCAUAUCGCUGCCAGUGAAGAAAUGAACAAAGAAAAUCUGGGCCAGGCAGGCAUCAAAAGAAAUAGUCUUGCGCUCAACCAGAAAGUCUGUAAUCAUUUUAAGGGUA [C6A U38A]  0.42
39. GUUAAAGGUCAUAGGCCAUGGAAACUAGGAGCACCAUUUCGCUGCCAGUGAAGAAAUGAACAAAGAAAAUCUGGGCCAGGCAGGCAUCAAAAGGAAUAGUCUUGCGCUCAACCAGAAAGUCUGUAAUCAUUUUAAGGGUA [C6A A94G]  0.36
40. GUUAAAGGUCAUAGGCCAUGGAAACUAGGAGCACCAUUUCGCUGCCAGUGAAGAAAUGAACAAAGAAAAUCUGGGCCAGGCAGGCAUCAAAAGAAAUAGUCUUGCGCUCAACCAGAAAGUCUGUGAUCAUUUUAAGGGUA [C6A A125G]  0.29
41. GUUAUCGGUCAUAGGCCAUGGAAACUAGGAGCACCAUUUCGCUGCCAGUGAAGAAAUGAACAAAGAAAAUCUGGGCCAGGCAGGCAUCAAAAGAAAUAGUCUUACGCUCAACCAGAAAGUCUGUAAUCAUUUUAAGGGUA [A5U G104A]  0.09
